Results on 2 molecules are retold here after patent US20240294895A1, “ENZYMATIC COMPOSITIONS FOR CARBOHYDRATE ANTIGEN CLEAVAGE ON DONOR ORGANS, METHODS AND USES ASSOCIATED THEREWITH” (THE UNIVERSITY OF BRITISH COLUMBIA, priority 2018, published 2024).

Data set [1] addresses Flavonifractor plautii GalNAcDeacetylase (FpGalNAcDeAc), SEQ ID NO: 2, 4, 5 (Flavonifractor plautii, UniProt P0DTR4). The note with it: 100 μM EDTA; 50 μM A antigen subtype 1penta-MU, pH 7.4, 37° C.
Substrate in data set [2]: CC(=O)N[C@H]1[C@H](Oc2ccc3c(C)cc(=O)oc3c2)O[C@H](CO)[C@@H](O)[C@@H]1O[C@@H]1O[C@H](CO)[C@H](O)[C@H](O[C@H]2O[C@H](CO)[C@H](O)[C@H](O)[C@H]2N)[C@H]1O[C@@H]1O[C@@H](C)[C@@H](O)[C@@H](O)[C@@H]1O
The experiment in a line: Kinetic parameters of FpGalNase full length (MU or pNP release). In kind it is biochemical, Flavonifractor plautii. As to conditions: other: 100 mM NaH2PO4, pH 7.4, 37° C. On the procedure: (§1) All kinetic assays utilizing 4-methylumbelliferone as leaving group were performed through measurement of fluorescence. To avoid measurement errors based on the inner filter effect (Palmier 2007) standard curves were used to validate the linear range of the fluorophore.
(§2) Michaelis-Menten parameter was determined for GalN antigen subtype 1penta-MU and A antigen subtype 1penta-MU in 100 mM NaH2PO4, pH 7.4 at 37° C. Reaction was performed in 100 μl with 3.4 nM FpGalactosaminidase (5.31 nM FpGalNase_truncA) and 0.1 mg/mL SpHex, AfcA, 0.2 mg/mL BgaC and varying concentrations of substrate (5 μM-2 mM). The reactions were run as a series of four with controls (no FpGalactosaminidase) as duplicates. The fluorescence signal (365/435 nm) resulting from MU release by hydrolysis was monitored by Synergy H1™ plate reader [BioTek™] and converted to concentration using MU standard concentration curves determined under identical reaction conditions. Initial rates (μM/s) were determined and plotted in Grafit 7.0™ to determine the kinetic parameters.
(§3) kcat/KM parameter was determined for GalN antigen subtype 1/2/4tetra-MU and B antigen subtype 1tetra-MU at pH 7.4 and 37° C. Reactions (total volume of 100 μL) were performed in black 96-plate wells and as coupled assays in 100 mM NaH2 PO4 (pH 7.4) with 8.63 nM FpGalactosaminidase, 0.1 mg/mL SpHex, BgaC (BgaA for Subtype 2), AfcA, varying concentrations of substrate (25 μM, 20 μM, 15 μM, 10 μM, 7.5 μM, 5 μM). The reactions were run as a series of four with controls (no FpGalactosaminidase) as duplicates. The fluorescence signal (365/435 nm) resulting from MU release by hydrolysis was monitored by Synergy H1™ plate reader [BioTek™] and converted to concentration using MU standard concentration curves determined under identical reaction conditions. Initial rates (μM/s) were determined and plotted in Grafit 7.0™ to determine the kcat/KM (s^−1*mM^−1) parameters.
(§4) Michaelis-Menten parameters were determined for GalN-α-pNP in clear 96-plate at 37° C. with 863.2 nM FpGalactosaminidase (in 100 mM NaH2PO4, pH 7.4) or 369.9 nM FpGH4 (in 50 mM Tris/HCl, pH 7.4, 100 μM NAD^+, 1 mM MnCl2) with varying concentrations of substrate (10 μM-5 mM) in a volume of 100 μl. The reactions were run as a series of three with two controls (no enzyme). The absorption (at 405 nm) resulting from pNP release by hydrolysis was monitored by Synergy H1™ plate reader [BioTek™] and converted to concentration using p-nitrophenol standard concentration curves determined under identical reaction conditions. Initial rates (μM/s) were determined and plotted in Grafit 7.0™ to determine the kinetic parameters.

Substrate in data set [3]: CC(=O)N[C@H]1[C@H](Oc2ccc3c(C)cc(=O)oc3c2)O[C@H](CO)[C@@H](O[C@@H]2O[C@H](CO)[C@H](O)[C@H](O[C@H]3O[C@H](CO)[C@H](O)[C@H](O)[C@H]3N)[C@H]2O[C@@H]2O[C@@H](C)[C@@H](O)[C@@H](O)[C@@H]2O)[C@@H]1O
The description is as above. In kind it is biochemical, Flavonifractor plautii. The note with it: other: 100 mM NaH2PO4, pH 7.4, 37° C. On the procedure:
as §1, §2, §3, §4

Substrate in data set [4]: CC(=O)N[C@H]1[C@H](Oc2ccc3c(C)cc(=O)oc3c2)O[C@H](CO)[C@@H](O)[C@@H]1O[C@@H]1O[C@H](CO)[C@H](O)[C@H](O[C@H]2O[C@H](CO)[C@H](O)[C@H](O)[C@H]2O)[C@H]1O[C@@H]1O[C@@H](C)[C@@H](O)[C@@H](O)[C@@H]1O
The data set is described as above. The note with it: other: 100 mM NaH2PO4, pH 7.4, 37° C. In kind it is biochemical, Flavonifractor plautii. On the procedure:
as §1, §2, §3, §4

Substrate in data set [5]: CC(=O)N[C@H]1[C@H](Oc2ccc3c(C)cc(=O)oc3c2)O[C@H](CO)[C@H](O)[C@@H]1O[C@@H]1O[C@H](CO)[C@H](O)[C@H](O[C@H]2O[C@H](CO)[C@H](O)[C@H](O)[C@H]2N)[C@H]1O[C@@H]1O[C@@H](C)[C@@H](O)[C@@H](O)[C@@H]1O
The data set is described as above. It counts as biochemical, Flavonifractor plautii. As to conditions: other: 100 mM NaH2PO4, pH 7.4, 37° C. On the procedure: as §1, §2, §3, §4

Substrate in data set [6]: CC(=O)N[C@H]1[C@H](O[C@H]2[C@@H](O)[C@@H](CO)O[C@@H](Oc3ccc4c(C)cc(=O)oc4c3)[C@@H]2O)O[C@H](CO)[C@@H](O)[C@@H]1O[C@@H]1O[C@H](CO)[C@H](O)[C@H](O[C@H]2O[C@H](CO)[C@H](O)[C@H](O)[C@H]2N)[C@H]1O[C@@H]1O[C@@H](C)[C@@H](O)[C@@H](O)[C@@H]1O
Described as above. In kind it is biochemical, Flavonifractor plautii. The note with it: other: 100 mM NaH2PO4, pH 7.4, 37° C. On the procedure:
as §1, §2, §3, §4

Substrate in data set [7]: N[C@H]1[C@@H](Oc2ccc([N+](=O)[O-])cc2)O[C@H](CO)[C@H](O)[C@@H]1O
The description is as above. It counts as biochemical, Flavonifractor plautii. As to conditions: other: 100 mM NaH2PO4, pH 7.4, 37° C. On the procedure:
as §1, §2, §3, §4

Sequence of Flavonifractor plautii GalNAcDeacetylase (FpGalNAcDeAc), SEQ ID NO: 2, 4, 5 (P0DTR4 13-772, looked up, natural form): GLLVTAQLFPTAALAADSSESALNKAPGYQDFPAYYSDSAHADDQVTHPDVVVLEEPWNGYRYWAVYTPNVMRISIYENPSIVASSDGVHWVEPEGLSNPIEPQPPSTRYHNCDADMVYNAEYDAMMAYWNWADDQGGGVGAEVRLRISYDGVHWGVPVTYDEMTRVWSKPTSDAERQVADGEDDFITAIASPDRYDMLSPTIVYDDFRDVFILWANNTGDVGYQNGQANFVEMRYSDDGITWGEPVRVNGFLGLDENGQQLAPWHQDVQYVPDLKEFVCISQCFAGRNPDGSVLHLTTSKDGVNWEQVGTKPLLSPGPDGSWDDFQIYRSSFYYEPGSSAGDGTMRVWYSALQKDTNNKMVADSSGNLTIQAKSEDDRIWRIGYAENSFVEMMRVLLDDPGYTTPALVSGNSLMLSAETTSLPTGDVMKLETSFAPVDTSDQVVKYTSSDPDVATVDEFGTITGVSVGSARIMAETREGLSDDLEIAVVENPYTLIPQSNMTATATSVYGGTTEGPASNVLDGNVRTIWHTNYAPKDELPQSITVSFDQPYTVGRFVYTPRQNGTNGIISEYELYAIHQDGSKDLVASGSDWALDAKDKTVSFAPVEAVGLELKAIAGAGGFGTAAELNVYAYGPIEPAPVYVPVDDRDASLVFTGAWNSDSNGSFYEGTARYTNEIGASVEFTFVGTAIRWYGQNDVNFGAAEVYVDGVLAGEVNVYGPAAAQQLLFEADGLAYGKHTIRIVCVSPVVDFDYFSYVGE

With `O=C(O)CN(CCN(CC(=O)O)CC(=O)O)CC(=O)O` [EDTA], in data set [1], the “effect of treatment on enzyme activity” value is “largely obliterated the enzyme activity”.

B1: Flavonifractor plautii Galactosaminidase (FpGalNase), full length, SEQ ID NO: 7, 9, 10 (Flavonifractor plautii) (protein)
chain: MGHHHHHHHHHHSSGAAPATDTGNAGLIAEGDYAIAGNGVRVTYDADGQTITLYRTEGSGLIQMSKPSPLGGPVIGGQEVQDFSHISCDVEQSTSGVMGSGQRMTITSQSMSTGLIRTYVLETSDIEEGVVYTATSYEAGASDVEVSWFIGSVYELYGAEDRIWSYNGGGEGPMHYYDTLQKIDLTDSGKFSRENKQDDTAASIPVSDIYIADGGITVGDASATRREVHTPVQETSDSAQVSIGWPGKVIAAGSVIEIGESFAVVHPGDYYNGLRGYKNAMDHLGVIMPAPGDIPDSSYDLRWESWGWGFNWTIDLIIGKLDELQAAGVKQITLDDGWYTNAGDWALNPEKFPNGASDALRLTDAIHEHGMTALLWWRPCDGGIDSILYQQHPEYFVMDADGRPARLPTPGGGTNPSLGYALCPMADGAIASQVDFVNRAMNDWGFDGFKGDYVWSMPECYNPAHNHASPEESTEKQSEIYRVSYEAMVANDPNVFNLLCNCGTPQDYYSLPYMTQIATADPTSVDQTRRRVKAYKALMGDYFPVTADHNNIWYPSAVGTGSVLIEKRDLSGTAKEEYEKWLGIADTVQLQKGRFIGDLYSYGFDPYETYVVEKDGVMYYAFYKDGSKYSPTGYPDIELKGLDPNKMYRIVDYVNDRVVATNLMGDNAVFNTRFSDYLLVKAVEISEPDPEPVDPDYGFTSVDDRDEALIYTGTWHDDNNASFSEGTARYTNSTDASVVFSFTGTSIRWYGQRDTNFGTAEVYLDDELKTTVDANGAAEAGVCLFEALDLPAAEHTIKIVCKSGVIDIDRFAYEAATLEPIYEKVDALSDRITYVGNWEEYHNSEFYMGNAMRTDEAGAYAELTFRGTAVRLYAEMSFNFGTADVYLDGELVENIILYGQEATGQLMFERTGLEEGEHTIRLVQNAWNINLDYISYLPEQDQPTPPETTVTVDAMDAQLVYTGVWNDDYHDVFQEGTARYASSAGASVEFEFTGSEIRWYGQNDSNFGVASVYIDNEFVQQVNVNGAAAVGKLLFQKADLPAGSHTIRIVCDTPVIDLDYLTYTTNA
With B1, the catalytic efficiency (kcat/Km) was found to be 45700 ± 3570 M⁻¹ s⁻¹ in data set [2]; 47270 ± 7490 M⁻¹ s⁻¹ in data set [3]; 20 M⁻¹ s⁻¹ in data set [4]; 30050 ± 2330 M⁻¹ s⁻¹ in data set [5]; 36480 M⁻¹ s⁻¹ in data set [6]; 40 M⁻¹ s⁻¹ in data set [7]. Also, the values for the Km in data set [6] and in data set [7] were 64.5 ± 7.6 µM and 700 ± 151 µM, respectively. Besides, the kcat in data set [6] amounted to 2.35 s⁻¹; in data set [7] it was 0.029 s⁻¹.
